Key:
RimKPA [1] = target: T1, RimKPA (Pseudomonas aeruginosa, UniProt Q9HTZ2); test: X-ray crystal structure, […] A; conditions: ATP binding site; co-purified from expression host; weak density, interpreted as ADP
T1 construct: gene rimK; full ORF in pET29a, C-terminal hexahistidine tag, E. coli BL21 (DE3) pLysS; tetramer
T1 sequence (Q9HTZ2 1-301): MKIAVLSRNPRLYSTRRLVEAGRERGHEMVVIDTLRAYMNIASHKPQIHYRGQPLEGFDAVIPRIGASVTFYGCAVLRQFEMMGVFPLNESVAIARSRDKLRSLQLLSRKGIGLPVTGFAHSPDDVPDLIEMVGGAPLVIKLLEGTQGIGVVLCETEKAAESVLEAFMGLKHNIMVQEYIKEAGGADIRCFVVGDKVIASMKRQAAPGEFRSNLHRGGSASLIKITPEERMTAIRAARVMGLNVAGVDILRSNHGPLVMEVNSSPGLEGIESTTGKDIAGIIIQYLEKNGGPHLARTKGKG

RimKPS = target: T2, RimKPS (Pseudomonas syringae group genomosp. 3, UniProt Q88AZ9); test: PK/LDH-coupled ATPase assay, NADH oxidation at […] nm; assay type: biochemical; conditions: activator; 25 uM cdG, 1.5 uM RimK, ATP as substrate; pH 9.0, 20 mM MgSO4, 25 C
T2 construct: gene rimK; full ORF in pET29a, C-terminal hexahistidine tag, E. coli BL21 (DE3) pLysS; tetramer
T2 sequence (Q88AZ9 1-301): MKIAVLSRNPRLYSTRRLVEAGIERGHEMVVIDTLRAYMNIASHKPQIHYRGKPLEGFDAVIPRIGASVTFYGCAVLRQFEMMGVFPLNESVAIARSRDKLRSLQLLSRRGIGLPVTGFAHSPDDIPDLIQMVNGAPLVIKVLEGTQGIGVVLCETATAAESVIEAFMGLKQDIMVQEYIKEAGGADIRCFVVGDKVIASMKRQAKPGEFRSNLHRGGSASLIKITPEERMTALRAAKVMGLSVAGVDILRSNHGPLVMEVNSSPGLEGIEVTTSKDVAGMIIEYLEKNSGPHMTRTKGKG

RimKPA [2] = target: T1, RimKPA; test: as above; assay type: biochemical; conditions: activator; 25 uM cdG, 2.5 uM RimK, ATP as substrate; pH 9.0, 20 mM MgSO4, 25 C
[3] = target: P. aeruginosa PAO1 RimK (P. aeruginosa PAO1) (UniProt B7V3U4); test: crystal structure; RimKPA at 17 mg/ml, sitting-drop vapor diffusion at 293 K, 0.2 M potassium sodium tartrate, 0.1 M bis-tris propane pH 7.5, 20% PEG 3350; 2.4 Å, P2(1), eight copies in the asymmetric unit
[4] = target: P. syringae pv. tomato DC3000 RimK (P. syringae pv. tomato DC3000) (UniProt Q88AZ9)
purified protein [5] = substrate: Nc1ncnc2c1ncn2[C@@H]1O[C@H](COP(=O)(O)OP(=O)(O)OP(=O)(O)O)[C@@H](O)[C@H]1O; test: purified protein; assay type: biochemical, Pseudomonas fluorescens; conditions: 100 mM Tris-HCl pH 9.0, 20 mM MgSO4, 25 C, 1.5 uM RimK, no RimB
purified protein [6] = substrate: Nc1ncnc2c1ncn2[C@@H]1O[C@H](COP(=O)(O)OP(=O)(O)OP(=O)(O)O)[C@@H](O)[C@H]1O; test: purified protein; conditions: 100 mM Tris-HCl pH 9.0, 20 mM MgSO4, 25 C, 1.5 uM RimK, no RimB
[7] = target: the molecule itself; test: crystal structure; RimKPS at 3.7 mg/ml, sitting-drop vapor diffusion at 293 K, 0.2 M calcium chloride, 0.1 M HEPES pH 7.0, 20% PEG6000; ATP and cdG in the cryoprotectant; 2.9 Å, P1, 16 copies in the asymmetric unit

Q: With Nc1ncnc2c1ncn2[C@@H]1O[C@H](COP(=O)(O)OP(=O)(O)O)[C@@H](O)[C@H]1O [ADP] as the molecule, how does the “X-ray crystal structure, 2.4 A” value (RimKPA [1]) read?
A: The value was “ADP and glutamate, of presumed cellular origin, were resolved in the RimKPA structure”.

Q: Which results are given for Nc1nc2c(ncn2[C@@H]2O[C@@H]3COP(=O)(O)O[C@H]4[C@@H](O)[C@H](n5cnc6c(=O)[nH]c(N)nc65)O[C@@H]4COP(=O)(O)O[C@H]3[C@H]2O)c(=O)[nH]1 [cyclic-di-GMP]?
A: PK/LDH-coupled ATPase assay, NADH oxidation at 340 nm (RimKPS): the addition of cdG stimulated ATPase activity for both proteins; PK/LDH-coupled ATPase assay, NADH oxidation at 340 nm (RimKPA [2]): the addition of cdG stimulated ATPase activity for both proteins

Q: “P. aeruginosa PAO1 RimK (from UniProt B7V3U4 1-301) (enzyme)” was tested. Which stoichiometry N [3] did it give?
A: The stoichiometry N was 4.

Q: Which results are given for RimB of P. syringae (enzyme)?
A: RimKPS ATPase activity (linked PK/LDH assay) against RimBPS 0–1.2 mM, fitted K m [4]: 120 µM; RimKPS ATPase activity (linked PK/LDH assay) against RimBPS 0–1.2 mM, fitted V max [4]: 692

B1: RimKPF (Pseudomonas [fluorescens] SBW25) (protein)
chain: MKIAVLSRNPRLYSTRRLVEAGVERGHEMVVIDTLRAYMNIASHKPQIHYRGKPLEGFDAVIPRIGASVTFYGCAVLRQFEMMGVFPLNESVAIARSRDKLRSLQLLSRRGIGLPVTGFAHSPDDIPDLIDMVNGAPLVIKVLEGTQGIGVVLCETATAAESVIEAFMGLKQNIMVQEYIKEAGGADIRCFVVGDKVIAAMKRQAKPGEFRSNLHRGGSASLIKITPEERMTALRAAKVMGLSVAGVDILRSNHGPLVMEVNSSPGLEGIETTTGKNVAGIIIEHLEKNGGPNMTRTKGKG
notes: purified recombinant RimK
Q: Which Km (purified protein [5]) does the source give for B1 here?
A: The Km was 800 µM.

B2: P. syringae pv. tomato DC3000 RimK (enzyme, UniProt Q88AZ9 1-301, looked up)
chain: MKIAVLSRNPRLYSTRRLVEAGIERGHEMVVIDTLRAYMNIASHKPQIHYRGKPLEGFDAVIPRIGASVTFYGCAVLRQFEMMGVFPLNESVAIARSRDKLRSLQLLSRRGIGLPVTGFAHSPDDIPDLIQMVNGAPLVIKVLEGTQGIGVVLCETATAAESVIEAFMGLKQDIMVQEYIKEAGGADIRCFVVGDKVIASMKRQAKPGEFRSNLHRGGSASLIKITPEERMTALRAAKVMGLSVAGVDILRSNHGPLVMEVNSSPGLEGIEVTTSKDVAGMIIEYLEKNSGPHMTRTKGKG
notes: RimK, ATP-dependent glutamate ligase, P. syringae pv. tomato DC3000; open reading frame of rimK cloned into pET29a; Tetramer in the crystal; 16 copies in the asymmetric unit; also called RimKPS; RimKPs; source: E. coli BL21 (DE3) pLysS, purified (His-Trap Excel column)
Q: Which Km (purified protein [6]; a separate series in Figure S1 prints K m = 1.85 mM) does the source give for B2 here?
A: Its Km is 1000 µM.

Q: What about the “stoichiometry N” value [7] of the same molecule?
A: The value was 4.

B3: RimKPA (Pseudomonas aeruginosa PAO1) (protein)
chain: MKIAVLSRNPRLYSTRRLVEAGRERGHEMVVIDTLRAYMNIASHKPQIHYRGQPLEGFDAVIPRIGASVTFYGCAVLRQFEMMGVFPLNESVAIARSRDKLRSLQLLSRKGIGLPVTGFAHSPDDVPDLIEMVGGAPLVIKLLEGTQGIGVVLCETEKAAESVLEAFMGLKHNIMVQEYIKEAGGADIRCFVVGDKVIASMKRQAAPGEFRSNLHRGGSASLIKITPEERMTAIRAARVMGLNVAGVDILRSNHGPLVMEVNSSPGLEGIESTTGKDIAGIIIQYLEKNGGPHLARTKGKG
Q: B3 was tested. Which Km (purified protein [6]; a separate series in Figure S1 prints K m = 2.1 mM) did it give?
A: Its Km is 300 µM.
